{
  "source": "paper PMC12081870",
  "about": "(Communications Biology, 2025)",
  "assay": "15N NMR relaxation (T1, T2, NOE) of Sla1 SH3#1&2",
  "format": "physicochemical, Saccharomyces cerevisiae",
  "design": "Time Constant (T2) / T1 / T2: unit not given here",
  "conditions": "for R1/s: 15N relaxation rate; for NOE / T1 / T2: 15N relaxation; for Time Constant (T2): fit A exp(-Bx), 11 peaks",
  "excerpt": "Fig. 2 A structural analysis of Sla1 SH3 domains 1 and 2. A The predicted interface between the first two SH3 domains of Sla1 as modelled using Alphafold. SH3#1 is shown in light green and SH3#2 is shown in cyan. Residues predicted to form hydrogen bonds using the Pymol search function are shown as sticks and labelled with their respective residue numbers. Dashed black lines indicate interactions. The red line in the structure indicates residues 67–70 in the hinge between the SH3 domains; the magenta loop indicates residues 52–54. B Assignment of the ^1H ^15N HSQC spectrum of Sla1 SH3 domains 1 and 2. C^15N relaxation data for Sla1 SH3#1&2. The linker between domains is approximately residues 67–70 (shown with red line under the trace and in A), and the mobile region 52-54 is part of a loop (shown with magenta line below the trace and in A). The correlation time of 8.5 ns (derived from the trimmed ^15N T1/T2 ratio), matches that calculated for a rigid two-domain structure rather than two independent domains (8.8 and 4.5 ns, respectively).\nTo investigate further, we purified ^15N, ^13C labelled Sla1 SH3#1&2 and analysed using NMR. A full assignment was obtained (Fig. 2B) which confirmed the Alphafold structure. An important aspect when considering the function of tandem domains is the level of rigidity or flexibility between the domains. […] NMR was used to determine relaxation parameters (^15N R1, R2 and NOE) of ^15N-labelled SH3#1-2 (Fig. 2B). […] The structural unity of the two-domain structure explains why attempts to study SH3#2 alone were unsuccessful.\nExperiments were carried out on Bruker DRX-600 and DRX-800 spectrometers fitted with cryoprobes. SH3 domains 1 and 2 were assigned using a standard set of HNCA/HN(CO)CA, HNCO/HN(CA)CO and CBCAHN/CBCA(CO)HN 3D spectra. The assignment has been deposited at BioMagResBank, with code 52650. SH3 domain-3 was assigned by comparison to data provided by Prof Ishwar Radhakrishnan (Northwestern University) for the same domain although with different residues at both ends. Titrations were conducted with three peptides (GenScript Biotech, UK) comprising the three PP motifs (Fig. 3A): p1 […] (residues 318–339); p2 […] (residues 330–361); and p3 […] (residues 375–397). Peptide solutions were prepared as concentrated stock solutions in the same buffer at the same pH and added stepwise to protein solutions. Shift changes were analysed by picking peaks in Felix (Felix NMR Inc, San Diego, CA), which were downloaded to text files and for determining Kd were analysed using Levenberg-Marquardt least squares fitting to the standard quadratic equation[63]. Analysis of the ^15N relaxation data was carried using CCPN Analysis[64].",
  "key": {"[1]": {"conditions": "Average over the listed residues"}},
  "data": [
    {"molecule": "Sla1 SH3#1-2: SH3#1-2 (aa 5-131), tandem domains; sequence in b253 (protein, 15N-labelled (NMR only); left off: GST, end not stated, cleaved) LGIYRAVYAYEPQTPEELAIQEDDLLYLLQKSDIDDWWTVKKRVIGSDSEEPVGLVPSTYIEEAPVLKKVRAIYDYEQVQNADEELTFHENDVFDVFDDKDADWLLVKSTVSNEFGFIPGNYVEPEN", "values": [
      {"measurement": "R1/s", "setting": "Res No 120", "result": 1.466, "unit": "s⁻¹"},
      {"measurement": "R1/s", "setting": "Res No 121", "result": 1.493, "unit": "s⁻¹"},
      {"measurement": "R1/s", "setting": "Res No 122", "result": 1.379, "unit": "s⁻¹"},
      {"measurement": "R1/s", "setting": "Res No 124", "result": 1.37, "unit": "s⁻¹"},
      {"measurement": "R1/s", "setting": "Res No 125", "result": 1.488, "unit": "s⁻¹"},
      {"measurement": "R1/s", "setting": "Res No 126", "result": 1.238, "unit": "s⁻¹"},
      {"measurement": "R1/s", "setting": "Res No 127", "result": 1.493, "unit": "s⁻¹"},
      {"measurement": "R1/s", "setting": "Res No 128", "result": 1.443, "unit": "s⁻¹"},
      {"measurement": "R1/s", "setting": "Res No 130", "result": 1.206, "unit": "s⁻¹"},
      {"measurement": "R1/s", "setting": "Res No 131", "result": 1.364, "unit": "s⁻¹"},
      {"measurement": "NOE", "setting": "Res No 120", "result": 0.82},
      {"measurement": "T1", "setting": "Res No 120", "result": 682.123},
      {"measurement": "T2", "setting": "Res No 120", "result": 81.3349},
      {"measurement": "NOE", "setting": "Res No 121", "result": 0.78},
      {"measurement": "T1", "setting": "Res No 121", "result": 669.609},
      {"measurement": "T2", "setting": "Res No 121", "result": 97.0012},
      {"measurement": "NOE", "setting": "Res No 122", "result": 0.83},
      {"measurement": "T1", "setting": "Res No 122", "result": 725.391},
      {"measurement": "T2", "setting": "Res No 122", "result": 86.8543},
      {"measurement": "NOE", "setting": "Res No 124", "result": 0.77},
      {"measurement": "T1", "setting": "Res No 124", "result": 730.172},
      {"measurement": "T2", "setting": "Res No 124", "result": 96.3447},
      {"measurement": "NOE", "setting": "Res No 125", "result": 0.80},
      {"measurement": "T1", "setting": "Res No 125", "result": 671.872},
      {"measurement": "T2", "setting": "Res No 125", "result": 93.7171},
      {"measurement": "NOE", "setting": "Res No 126", "result": 0.79},
      {"measurement": "T1", "setting": "Res No 126", "result": 807.954},
      {"measurement": "T2", "setting": "Res No 126", "result": 78.1493},
      {"measurement": "NOE", "setting": "Res No 127", "result": 0.85},
      {"measurement": "T1", "setting": "Res No 127", "result": 669.869},
      {"measurement": "T2", "setting": "Res No 127", "result": 96.0414},
      {"measurement": "NOE", "setting": "Res No 128", "result": 0.81},
      {"measurement": "T1", "setting": "Res No 128", "result": 693.218},
      {"measurement": "T2", "setting": "Res No 128", "result": 98.2071},
      {"measurement": "NOE", "setting": "Res No 130", "result": 0.63},
      {"measurement": "T1", "setting": "Res No 130", "result": 829.235},
      {"measurement": "T2", "setting": "Res No 130", "result": 96.7653},
      {"measurement": "NOE", "setting": "Res No 131", "result": 0.25},
      {"measurement": "T1", "setting": "Res No 131", "result": 733.153},
      {"measurement": "T2", "setting": "Res No 131", "result": 129.47},
      {"measurement": "T1, average", "setting": "[1]", "result": 736.968, "unit": "ms"},
      {"measurement": "T1/T2, average", "setting": "[1]", "result": 7.904},
      {"measurement": "T2, average", "setting": "Average over the listed residues, unit of column T2 Error not given", "result": 95.1164, "unit": "ms"},
      {"measurement": "tm", "setting": "If S2 ~ 0.9, from T1/T2", "result": "~8.5", "unit": "ns"},
      {"measurement": "correlation time", "setting": "derived from trimmed 15N T1/T2 ratio", "result": 8.5, "unit": "ns"},
      {"measurement": "Time Constant (T2)", "setting": "residue 2, 2LeuH/2LeuN", "result": 74.2339},
      {"measurement": "Time Constant (T2)", "setting": "residue 3, 3GlyH/3GlyN", "result": 77.6134},
      {"measurement": "Time Constant (T2)", "setting": "residue 4, 4SerH/4SerN", "result": 87.959},
      {"measurement": "Time Constant (T2)", "setting": "residue 5, 5LeuH/5LeuN", "result": 78.1323},
      {"measurement": "Time Constant (T2)", "setting": "residue 6, 6GlyH/6GlyN", "result": 92.4802},
      {"measurement": "Time Constant (T2)", "setting": "residue 7, 7IleH/7IleN", "result": 92.3591},
      {"measurement": "Time Constant (T2)", "setting": "residue 8, 8TyrH/8TyrN", "result": 80.6702},
      {"measurement": "Time Constant (T2)", "setting": "residue 9, 9ArgH/9ArgN", "result": 95.265},
      {"measurement": "Time Constant (T2)", "setting": "residue 10, 10AlaH/10AlaN", "result": 80.3318},
      {"measurement": "Time Constant (T2)", "setting": "residue 11, 11ValH/11ValN", "result": 83.3796},
      {"measurement": "Time Constant (T2)", "setting": "residue 12, 12TyrH/12TyrN", "result": 98.6102},
      {"measurement": "Time Constant (T2)", "setting": "residue 13, 13AlaH/13AlaN", "result": 103.591},
      {"measurement": "Time Constant (T2)", "setting": "residue 14, 14TyrH/14TyrN", "result": 86.8853},
      {"measurement": "Time Constant (T2)", "setting": "residue 15, 15GluH/15GluN", "result": 80.7454},
      {"measurement": "Time Constant (T2)", "setting": "residue 17, 17GlnH/17GlnN", "result": 97.1227},
      {"measurement": "Time Constant (T2)", "setting": "residue 18, 18ThrH/18ThrN", "result": 94.4167},
      {"measurement": "Time Constant (T2)", "setting": "residue 20, 20GluH/20GluN", "result": 89.6372},
      {"measurement": "Time Constant (T2)", "setting": "residue 21, 21GluH/21GluN", "result": 88.1386},
      {"measurement": "Time Constant (T2)", "setting": "residue 22, 22LeuH/22LeuN", "result": 101.792},
      {"measurement": "Time Constant (T2)", "setting": "residue 23, 23AlaH/23AlaN", "result": 109.32},
      {"measurement": "Time Constant (T2)", "setting": "residue 24, 24IleH/24IleN", "result": 84.8173},
      {"measurement": "Time Constant (T2)", "setting": "residue 25, 25GlnH/25GlnN", "result": 91.5466},
      {"measurement": "Time Constant (T2)", "setting": "residue 26, 26GluH/26GluN", "result": 91.8855},
      {"measurement": "Time Constant (T2)", "setting": "residue 27, 27AspH/27AspN", "result": 90.7749},
      {"measurement": "Time Constant (T2)", "setting": "residue 28, 28AspH/28AspN", "result": 79.1318},
      {"measurement": "Time Constant (T2)", "setting": "residue 29, 29LeuH/29LeuN", "result": 102.528},
      {"measurement": "Time Constant (T2)", "setting": "residue 30, 30LeuH/30LeuN", "result": 94.1276},
      {"measurement": "Time Constant (T2)", "setting": "residue 31, 31TyrH/31TyrN", "result": 100.15},
      {"measurement": "Time Constant (T2)", "setting": "residue 32, 32LeuH/32LeuN", "result": 86.762},
      {"measurement": "Time Constant (T2)", "setting": "residue 33, 33LeuH/33LeuN", "result": 75.7339},
      {"measurement": "Time Constant (T2)", "setting": "residue 34, 34GlnH/34GlnN", "result": 87.3929},
      {"measurement": "Time Constant (T2)", "setting": "residue 35, 35LysH/35LysN", "result": 101.82},
      {"measurement": "Time Constant (T2)", "setting": "residue 36, 36SerH/36SerN", "result": 153.776},
      {"measurement": "Time Constant (T2)", "setting": "residue 37, 37AspH/37AspN", "result": 90.5854},
      {"measurement": "Time Constant (T2)", "setting": "residue 38, 38IleH/38IleN", "result": 99.0603}
    ]}
  ]
}
